In article PMC5450233:

B1: GST–SKIP(1-310) [not stated] / HA–KHC [rat] (parent)
chain 1: MEPGEVKDRILENISLSVKKLQSYFAACEDEIPAIRNHDKVLQRLCEHLDHALLYGLQDLSSGYWVLVVHFTRREAIKQIEVLQHVATNLGRSRAWLYLALNENSLESYLRLFQENLGLLHKYYVKNALVCSHDHLTLFLTLVSGLEFIRFELDLDAPYLDLAPYMPDYYKPQYLLDFEDRLPSSVHGSDSLSLNSFNSVTSTNLEWDDSAIAPSSEDYDFGDVFPAVPSVPSTDWEDGDLTDTVSGPRSTASDLTSSKASTRSPTQRQNPFNEEPAETVSSSDTTPVHTTSQEKEEAQALDPPDACTEL
chain 2: MADPAECSIKVMCRFRPLNEAEILRGDKFIPKFKGEETVVIGQGKPYVFDRVLPPNTTQEQVYNACAKQIVKDVLEGYNGTIFAYGQTSSGKTHTMEGKLHDPQLMGIIPRIAHDIFDHIYSMDENLEFHIKVSYFEIYLDKIRDLLDVSKTNLAVHEDKNRVPYVKGCTERFVSSPEEVMDVIDEGKANRHVAVTNMNEHSSRSHSIFLINIKQENVETEKKLSGKLYLVDLAGSEKVSKTGAEGAVLDEAKNINKSLSALGNVISALAEGTKTHVPYRDSKMTRILQDSLGGNCRTTIVICCSPSVFNEAETKSTLMFGQRAKTIKNTVSVNLELTAEEWKKKYEKEKEKNKALKSVIQHLEVELNRWRNGEAVPEDEQISAKDQKNLEPCDNTPIIDNITPVVDGISAEKEKYDEEITSLYRQLDDKDDEINQQSQLAEKLKQQMLDQDELLASTRRDYEKIQEELTRLQIENEAAKDEVKEVLQALEELAVNYDQKSQEVEDKTRANEQLTDELAQKTTTLTTTQRELSQLQELSNHQKKRATEILNLLLKDLGEIGGIIGTNDVKTLADVNGVIEEEFTMARLYISKMKSEVKSLVNRSKQLESAQTDSNRKMNASERELAACQLLISQHEAKIKSLTDYMQNMEQKRRQLEESQDSLSEELAKLRAQEKMHEVSFQDKEKEHLTRLQDAEEVKKALEQQMESHREAHQKQLSRLRDEIEEKQRIIDEIRDLNQKLQLEQERLSSDYNKLKIEDQEREVKLEKLLLLNDKREQAREDLKGLEETVSRELQTLHNLRKLFVQDLTTRVKKSVELDSDDGGGSAAQKQKISFLENNLEQLTKVHKQLVRDNADLRCELPKLEKRLRATAERVKALESALKEAKENAMRDRKRYQQEVDRIKEAVRAKNMARRAHSAQIAKPIRPGHYPASSPTAVHAVRGGGGSSNSTHYQK

Variants of: B1
Experiment: GST pull-down, immunoblot (IB: HA) quantified
Settings: with HA–KHC [rat]; lysates of 293T cells co-expressing HA-KHC and HA-KLC2 (kinesin-1 tetramer); three independent experiments; parent: 1; read off a plot

| ratio to parent | Variant |
| --- | --- |
| 0.5 | chain 1 E217A D218A Y219A |
| 0.97 | chain 1 W236A E237A |
| 0.38 | chain 1 D220A F221A G222A |
| 0.98 | chain 1 D238A G239A D240A |
